These results are taken from patent US10533050B2, “Methods and compositions for liver cancer therapy” (Institut National de la Sante et de la Recherche Medicale …, priority 2010, dated 2020).

Type in all cases: cell-based
Assay [1] has as its system side population cells of Huh7 cells. Put plainly: Spheroid formation of Huh7 side population cells under low adherence culture conditions. To be noted: 5 nM doxorubicin, 9 days; FIG. 9. The protocol: The dye excluding side population cells of Huh7 cells were isolated as described in Example 8. Side population cells were then seeded into ultra low adherence 96-well plates (200 cells/well) in M11 medium, and grown for 9 days at 37° C. in the presence of control or anti-progastrin polyclonal antibodies (1 μg/ml), 5 nM doxorubicin (a chemotherapeutic agent used in certain liver cancer therapy), or DMSO (vehicle for doxorubicin) (15 wells per condition). The composition of M11 medium was as follows: DMEM/F12-Glutamax (Catalog #31331 Invitrogen); 20 ng/ml EGF (R&D systems); 10 ng/ml FGF (R&D systems); 20 microg/ml Insulin (Sigma); 1/100 dilution of N2 supplement (Catalog #P1510, Gibco); 2 μg/ml ciprofloxacin, 5 μg/ml gentamycin and 3 μg/ml glucose. At the end of the experiment, photomicrographs were taken, and the number of spheres per well counted and the mean and standard deviation calculated.
The dye excluding side population cells of Huh7 cells were isolated as described in Example 8. […] At the end of the experiment, photomicrographs were taken, and the number of spheres per well counted and the mean and standard deviation calculated.

The test system of a further assay is liver cancer cells. Description: Neutralizing activity with liver cancer cells. To be noted: tests with liver cancer cells. The protocol:
A specific test for assessing whether a particular anti-hPG antibody is neutralizing can be performed as follows. Huh7 hepatocellular carcinoma cells are seeded in ultra low-adherence 24-well plates (500 cells/well) in serum-free M11 medium. Cells are grown at 37° C. and treated twice daily for 7 days with the test anti-hPG antibody or a control, non-specific monoclonal antibody, at antibody concentrations of about 5 μg/mL. At the end of the experiment, photomicrographs are taken, and the number of spheres per well is counted and the median and percentile distribution calculated.

For assay [2], the system named is PLC/PRL/5 hepatocellular carcinoma cells. Put plainly: Spheroid formation of PLC/PRL/5 cells under low adherence culture conditions. To be noted: vs control MAb. The method, then: PLC/PRL/5 hepatocellular carcinoma cells were seeded in ultra low-adherence 24-well plates (220 cells/well) in serum-free M11 medium (DMEM/F12 with 20 ng/ml EGF, 10 ng/ml FGF, 20 μg/ml insulin, N2 supplement, 2 μg/ml ciprofloxacin, 5 μg/ml gentamycin and 3 μg/ml glucose). Cells were grown for 10 days at 37° C., with the daily addition of control or anti-hPG MAb3 monoclonal antibodies (1 μg/ml). At the end of the experiment, photomicrographs were taken, and the number of spheres per well counted and the mean and standard deviation calculated. In one experiment, PLC/PRL/5 hepatocellular carcinoma cells were seeded in ultra low-adherence 96-well plates (35 cells/well) in serum-free M11 medium (DMEM/F12 with 20 ng/ml EGF, 10 ng/ml FGF, 20 μg/ml insulin, N2 supplement, 2 μg/ml ciprofloxacin, 5 μg/ml gentamycin, and 3 μg/ml glucose). […] At the end of the experiment, photomicrographs were taken, and the number of spheres per well counted and the median and percentile distribution calculated. […] At the end of the experiment, photomicrographs were taken, and the number of spheres per well counted and the median and percentile distribution calculated. […] At the end of the experiment, photomicrographs were taken, and the number of spheres per well counted and the median and percentile distribution calculated.

The test system of assay [3] is Huh7 hepatocellular carcinoma cells. Put plainly: Spheroid formation of Huh7 cells after antibody pre-treatment under regular adherence. The note with it: pre-treatment with 10 μg/mL, then 5 days without treatment, vs control MAb; FIG. 13A-B. The protocol: In one experiment, 75,000 Huh7 hepatocellular carcinoma cells/well were first seeded into 6-well plates in MEMα with 10% FCS, serum starved overnight and grown for 60 hours in MEMα+0.5% Pannexin H in the presence of 10 μg/mL anti-progastrin monoclonal antibody MAb8 or control monoclonal antibody (P3X63Ag8, ATCC, Ref TIB-9). At the end of treatment, for each treatment group, 500 cells/well were plated into eight wells of ultra low-adherence 24-well plates in 500 μl of serum-free M11 medium containing bFGF and EGF, and grown for a further 5 days without treatment. At the end of this period, photographs were taken, the number of spheres per well was counted, and sphere surface was measured. […] Thereafter, an operator who was blinded to the identity of all wells counted the spheroids.
In a second experiment, 75,000 Huh7 hepatocellular carcinoma cells/well were first seeded into 6-well plates in MEMα with 10% FCS, serum starved overnight and grown for 60 hours in MEMα+0.5% Pannexin H in the presence of 10 μg/mL anti-progastrin monoclonal antibody MAb16 or a control monoclonal antibody (P3X63Ag8, ATCC, Ref TIB-9). […] At the end of this period, photographs were taken, the number of spheres per well was counted, and sphere surface was measured. […] Thereafter, an operator who was blinded to the identity of all wells counted the spheroids.

`COc1cccc2c1C(=O)c1c(O)c3c(c(O)c1C2=O)C[C@@](O)(C(=O)CO)C[C@@H]3O[C@H]1C[C@H](N)[C@H](O)[C@H](C)O1` [Doxorubicin, doxorubicin]: the “Number of spheroids formed” value in assay [1] is listed as “reduce the number of spheroids”.

B1: MAb8: murine C-terminal anti-hPG monoclonal antibody, hybridoma 1C10D3B9, VH SEQ ID NO:59, VL SEQ ID NO:63 (antibody, V domains shown)
VH: EVQLVESGGGLVKPGGSLKLSCAASGFTFTTYAMSWVRQTPEKRLEWVATISSGGTYTYYPDSVKGRFTISRDNAKNALYLQMSSLRSEDTAMYYCATQGNYSLDFWGQGTSLTVSS
VL: DIVMTQAASSNPVTLGTSASISCRSSKSLRHTKGITFLYWYLQKPGQSPQLLIYQMSNLASGVPDRFSSSGSGTDFTLRISRVEAEDLGVYYCAQNLELPLTFGAGTKLELK
For B1, the Neutralizing activity entry in the assay on liver cancer cells is “exhibited neutralizing activity”. In assay [2] (6 μg/ml twice daily, 7 days, FIG. 15C), the “Number of spheroids formed” value is reported as “significantly reduced”. Moreover, the “Ability to grow as spheroids” value in assay [3] is on record as “significantly reduced”.

B2: MAb19: murine N-terminal anti-hPG monoclonal antibody, hybridoma 1B3B4F11, VH SEQ ID NO:62, VL SEQ ID NO:66 (antibody, V domains shown)
VH: DVQLQESGPGLVKPSQSLSLTCTVTGYSITSDYAWNWIRQFPGNKLEWMGYISFSGYTSYNPSLKSRISVTRDTSRNQFFLQLTSVTTEDTATYYCAREVNYGDSYHFDYWGQGTIVTVSS
VL: QLALTQSSSASFSLGASAKLTCTLSSQHRTYTIEWYQQQSLKPPKYVMEVKKDGSHSTGHGIPDRFSGSSSGADRYLSISNIQPEDEAIYICGVGDAIKGQSVFVFGGGTKVTVL
With B2, the Neutralizing activity result in the assay on liver cancer cells is on record as “exhibited neutralizing activity”. The “Number of spheroids formed” value in assay [2] (3 μg/ml twice daily, 8 days, FIG. 15A) is reported as “significantly reduced”.

B3: MAb3: murine N-terminal anti-hPG monoclonal antibody, hybridoma 6B5B11C10, VH SEQ ID NO:12, VL SEQ ID NO:13 (antibody, V domains shown)
VH: EVQLQQSGTVLARPGASVKMSCKASGYIFTSYWVHWVKQRPGQGLEWIGGFYPGNSDSRYNQKFKGKATLTAVTSASTAYMDLSSLTNEDSAVYFCTRRDSPQYWGQGTTLTVSS
VL: DVLMTQTPLSLPVSLGDQASISCRSSQSIVHSNGNTYLEWYLQKPGQSPKLLIYKVSNRFSGVPDRFSGSGSGTDFTLKISRLEAEDLGVYYCFQGSHVPFTFGGGTKLEIK
Consider B3, for which the Neutralizing activity result in the assay on liver cancer cells is on record as “exhibited neutralizing activity”.
